Measurements as given in patent US11021533 (VANDERBILT UNIVERSITY, dated 2021).

target: ZIKV strain H/PF/2013 (French Polynesia, 2013) virus (Zika virus, strain H/PF/2013); assay: cell-based or functional assay

Row | Binder | FRNT50 (focus reduction neutralization test on Vero cells) [ng/mL]
1 | ZIKV-195 (antibody, V domains shown) VH: QVQVVESGGGVVQPGRSLRLSCAASGFTFSSSAMHWVRQAPGKGLEWVAVISYDGSNKYYGDSVKGRFTISRDNSKNTLYLQMHSLRAEDTAVYYCAKDRDAYNTVGYFAYYYGMDVWGQGTLVTVSS VL: QSVLTQPPSVSEAPRQRVTISCSGSSSNIGNNAVNWYQQLPGKAPKLLIYYDDLLPSGVSDRFSGSKSGTSASLAISGLQSEDEADYYCAAWDDSLTRYVFGTGTKVTVL | 346
2 | ZIKV-117 (antibody, V domains shown) VH: QVQLVESGGGVVRPGGSLRLSCAASGFTFKNYGIHWVRQAPGKGPEWVAFVRYDGNNKYYADSVKGRFTISRDNAKNTLSLQMNSLRVEDTAVYFCARDPETFGGFDYWGQGTLVTVSS VL: ETVMTQSPATLSVSPGERGTLSCRASESVSSNLAWYQQKPGKAPRLLIYGASTRATGIPDRFSGSGSGTEFTLTISSLQSEDFAVYYCQQYYYSPRTFGQGTKVEVK | 5
3 | ZIKV-116 (antibody, V domains shown) VH: EVKLVESGRGLVRPGGSLRLSCAASGFTFSNYAMSWVRQGPGMGLEWVSTITADSDSKYYVDSVKGRFTISRDNSKDTLFLHMTSLRAEDTAVYYCAKDRLSRGVGELYDSWGQGTLVTVSQ VL: DIQMTQSPSTLSASVGDRVTITCRASQSIDVWLAWYQQKPGKAPKLLMYKTSTLQTGVPSRFSGSGSGTEFTLTISSLQTDDFATYYCQKYDSYPWTFGPGTKVEIK | 16
4 | ZIKV-216 (antibody, V domains shown) VH: EVQLVQSGAEGKKPGESLKISCKGSGYNFSNYWIGWVRQMPGKGLEWMGIIYPGDSDTRYSPSFQGQVTISADKSINTAYLQWRSLRASDSAMFYCARGVMITTPNPYDWFDAWGQGTLVTVSS VL: QSALTQPASVSGSPGQSITISCTGTGSDIGTYDYVSWYQQHPGKAPKLMIYGVTKRPSGVSHRFSGSKSVNTASLTISGLQAEDEADYFCSSYSTSSTFVVFGGGTKLTVL | 16
